Source: the nanobody polyreactivity screen of Harvey et al. (2022)

Experiment: yeast display, Sf9 membrane polyspecificity reagent, FACS + sequencing; frameworks hold sequencing errors
How it was run: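 A synthetic nanobody library was expressed on Saccharomyces cerevisiae BJ5465 by galactose induction for 36–48 hours. The library was stained for 1 hour at 4 °C with 10% biotinylated, detergent-solubilized Sf9 membrane reagent and enriched with streptavidin microbeads before FACS. Low and high (top ~1%) gates were set on anti-HA fluorescence for expression and streptavidin fluorescence for reagent binding, and each polyreactivity label reflects the gate of origin.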

QVQLVESGGGLVQAGGSLRLSCAASGSSFYDNAMGWYRQAPGKERELVAGIRSTGRTYYADSVKGRFTISRDNAKNTVYLQMNSLKPEDTAVYYCAAYVGTYGEYDYWGQGTQVTVSS
polyreactivity (PSR sort gate): low polyreactivity

QVQLVESGGGLVQAGGSLRLSCAASGRIFAYYAMGWYRQAPGKERELVATIRSGGDTNYADSVKGRFTISRDNAKNTVYLQMNSLKPEDTAVYYCNALYDWWYPHEYNYWGQGTQVTVSS
polyreactivity (PSR sort gate): low polyreactivity

QVQLEESGGGLVQAGGSLRLSCAASGRIFGWYALGWTRQAAGKESELVAAISNDGSTNYADSVKGRFTSSRDNAKNTVYLQLNSVKPEDTAVSYCNARVYSSRARWGTYDYWGQGNQVTVSS
polyreactivity (PSR sort gate): high polyreactivity

QVQLVESGGGLVQAGGSLRLSCAASGRTSFYYGMGWYRQAPGKERELVAGINYGGGSTYYADSVKGRFTISRDNAKNTVYLQMNSLKPEDTAVYYCNAGDGPDEEYDYWGQGTQVTVSS
polyreactivity (PSR sort gate): low polyreactivity

QVQLVESGGCLVQAGGSLRLSCAASGSIFGANTMGWYRQAPGKESELVAAISSGGNTYYADSVKGRFTISRDNAKNTVYLQMNSLKPEDTAVYYCNAQTRYRYQYGFLGGTGYNYWGQGTQVTVSS
polyreactivity (PSR sort gate): low polyreactivity

QVQLVESGGGLVQAGGSLRLSCAASGRIFGRYAMGWYRQAPGKEREFVAAISKRGGGTYYADSVKGRFTISRDNAKNTVYLQMNSLKPEDTAVYYCAVDNSPGFDDYDYWGQGTQVTVSS
polyreactivity (PSR sort gate): high polyreactivity

QVQLVESGGGLVQAGGSLRLSCAASGFTFWHYAMGWYRQAPGKERELVAAITWDGGSTYYADSVKGRFTISRDNAKNTFYLQMQSLKPEDNAVYYCAKLFGGTYYEYDYWGQGTQVTVSS
polyreactivity (PSR sort gate): low polyreactivity

QVQLVESGGGLVQAGGSLRLSCAASGFIFRRNAMGRYRQAPGKERELVAAITSRGGSTYYADSVKGRFTISRDNAKHTVYLQMNSLKPEDTAVYYCAAKFPSRFYSFVQYYYWGQVTQVTVSS
polyreactivity (PSR sort gate): high polyreactivity

QVQLVESGGVLVQAGGSLRLSCAASGRTFDRYAMGWYRQAPGKERELVAAITWSGGRTYYADSVKGRFTISRDNAKNTVYLHMNSLKPEDTAVYYCAADNSYRGYHSPYDYWGQGTQVTVSS
polyreactivity (PSR sort gate): low polyreactivity

QVQLVESGGGLVQAGGSLRLSCAASGRTFYGNVMGWYRQAPGKEREWVAVISWSSGSTSYADSVKGRFTISRDNAKNTVYLQMNSLKPEDTAVYYCAGTTRPPRYRQYDSDYYYWGQGTQVTVSS
polyreactivity (PSR sort gate): low polyreactivity

QVQLVESGGGLVQAGGSLRLSCADSGFILSPNTMGWYRQAPGKERELVAAMSSDVSTYADSVTGRFTISRDNAKNTVYLQMNSLKPEDTAVYYCNADDFGYASYEYWGQGTQVTVSS
polyreactivity (PSR sort gate): low polyreactivity

QVQLVESGGGLGQAGGSLRLSCAASGFIFGLNAMGWYRQAPGKERELVAAISSIGGSTYYADSVKGRFTISRDNAMNTVYLQMNSLIPEDTAVYYCAKRYGGRRSWYDYWGQGSQVTVSS
polyreactivity (PSR sort gate): high polyreactivity

QVQLVESGGGLVKEGGSLRLRCAASGRTFYVNAMGWSRQAPGKERELFASISSSGGSTYYADSVKGRFTSSRDNAKNTVYLQMNRLKPEDTEVYYCAKGYWPFWRGDRFYWGQGTQVTVSS
polyreactivity (PSR sort gate): high polyreactivity

QVQLVESGGGLVQAGGSLRLSCAASGGTFKPNVMGWYRQAPGKERELVAAITSGGSTYYADSVKGRFTMSRDNAKNTVYLQMNSLKPEDTAVYYCAATSLRRYGYNYWGQGTQVTVSS
polyreactivity (PSR sort gate): high polyreactivity

QVQLVDSGGGVVQAGGSLRLSCAASGFIFHRYAMGWYRPAPGKERELVASITRSGGSTYYADSVKGRFTISRDNAKNTVYLQMNSLKPEDTAVYYCAAQLPAYYKYPRHDYWGQGTQVTVSS
polyreactivity (PSR sort gate): high polyreactivity

QVQLVESGGGLVQAGGSLRLSCAASGSTFYQYAMGWYRQAPGKERELVAAISRISGSTSYADSVKGRFTISRDNAKNTVYLQLYSLKPEDTAVYYCAKGTAPIPYRGRVGTSKSDYWGQGTQVTVSS
polyreactivity (PSR sort gate): low polyreactivity

QVQLVESGGGLVQAGGSLRLSCAASGSTFHRYAMGWYRQAPGKERELVARINGSGGSTYYADSVKGRFTISRDNSKNTVYLQMNSLIPEDTAVYYCAADGLYYTYGYDYWGQGTQVTVSS
polyreactivity (PSR sort gate): low polyreactivity

PVQLVESGGGIVQAGGSLRLSCAASGRTFRYNPMGWSRQAPGKERELVAAITYSGGSTYYADSVKGRFTISRDNEKNTVYLQMNSMKPEETAVYYCAAGWRRFDYWGQGTQVTVSS
polyreactivity (PSR sort gate): high polyreactivity

QVQLVESGGGLVQAGGSLRLSCAASGFIFPFYVRGWYRQAPGKERELVAAINTGGSTYYADSVKGRFTISRDNAKNTVYLQMNSLKPEDTAVYYCAAKSRVKKYYFYGYNYWGQGTQVTVSS
polyreactivity (PSR sort gate): high polyreactivity

QVQLVESGGGLVQAGGSLRLSCAPSGRIFLPYAMGWYRPAPGKEWELVAGISSGGSTKYADSVKGRFTISRDNAMNTVYLQMNSLKPEDTAVYYCNRRFPIYCSRFGYYYWGQGTQVTVSS
polyreactivity (PSR sort gate): high polyreactivity

QVQLVESGGGLVQAGGSLRLSCAASGRIFRYYAMGWYRQAPGKERELVATIRSGGSTNYADSVKGRFTISRDNAKNTVYLQMNSLKPEDTEVYYCAATGGILSTYDYWGLGTQVTVSS
polyreactivity (PSR sort gate): high polyreactivity

QVQLVESGGGLVQAGGSLRISCAAYGSIFTRYAMGWYRQAPGKERELVAAINSGGSTKYADSVKGRFTISRDNAKNSVYLQMISLKPEDTAVYYCNAGYWWYGYDYWGQGSQVTVSS
polyreactivity (PSR sort gate): high polyreactivity

QVQLVESGGGLVQAGGSLRLSCAASGSTFRYYAMGWYRQAPGKESELVAAITSSGTSTYYADSVKGRFTISRDNAKNTVYLQMNSLKPEDTAVYYCAAPPVYKWVSSRYDYWGQGTQVTVSS
polyreactivity (PSR sort gate): low polyreactivity

QVQLVESGGGLVQEGGSLRLICAASGRTFYPNAMGWYRQAPGKERELVADITYSGASTYYADSVKGRFTISRDYAKNTVYLQMNSLKPEDTAVYYCNADDSCVLVYVPYDYWGQGTQVTVSS
polyreactivity (PSR sort gate): low polyreactivity

QVQLVESGGGLVQAGGSLRLSCAASGSIFRWYDMGWYRQAPGKERELVAAITWSGSTYYADSVKGRFTISRDNAKNTVYLQMNSLKPEDTAVYYCAAGSRYCNAETYSWYDYWGQGTQVTVSS
polyreactivity (PSR sort gate): high polyreactivity

QVQLVESGGGLVQAGGSLRLSCAASGTFYLYAIGWYRQAPGNERELVAALTRGGSTNYADSVKGRFTISRDNAKNTVDLQMNSLKPEDTAVYYCAAGSSRVFRKAGITRPSGLYYYWGQGTQVTVSS
polyreactivity (PSR sort gate): high polyreactivity

QVQLVESGGGLVQAGGSLRLSCAASGNIFGGNAMGWYRQAPGKERELVAAITRGGSTYYADSVKGRFTISRDNAKNTVYLQMNSLTPEDTAVYYCAAQLFKWKNRQSLWFDHGYYWGQGTQLTVSS
polyreactivity (PSR sort gate): low polyreactivity

QVQLVESGGGLVQAGGSLRLSCAASGRTLRRYAMGWYRQAPGKERELVAAISRSGSSTYADSVKGRFTISRDNAKNTVYFQMNSLKPEDTAVYYCNAVYGYSAHGYYYRYDYWGQGTQVTVSS
polyreactivity (PSR sort gate): high polyreactivity

QVQLVESGGGLVQAGGSLRLSCAASGRTFPYYAMGWYRQAPGKEMELVAAISSSGGRTYYADSVKGRFTISRDNAKNTVYLQMNSLKPEDTAVYYCNAESTYYPSGEDYWGQGTQVTVSS
polyreactivity (PSR sort gate): low polyreactivity

QVQLVESGGGLVQAGGSLRLSCAASGRIFPWYTMGWYRQAPGKERELVATIRGSGGSTHYADSVKGRFTISRDNAKNTVYLQMNSLKPEDTAVYYCATDRPRYRYQYKFDYWGQGTQVTVSS
polyreactivity (PSR sort gate): low polyreactivity

QVQLVESGGCLVQAGGSLRLSCAASGRIVYPYAMGWYRQAPGKERELVAAISSSGGSTYYADSVKGRFTISRDNAKNTVYLQMNSLKPDDTAVYYCAAQEFQKRLGGSWCRYDYWGQGTQVNVSS
polyreactivity (PSR sort gate): high polyreactivity

QVQLVESGGGLVQAGGSLRLSCAASGSIFAYYAMGWYRPAPGKERELVAAITVSGGRTNYADSVKGRFTISRDNAKNTVYLQMNSLKPEDTAVYYCAADTYSYWYARYDYWGQGTQVTVSS
polyreactivity (PSR sort gate): high polyreactivity

HDHLVESGAGLVQAGGSLRLSCAASGLIFPSNAMGWYRQAPGKERELVAAITNGGRTYYADSVKGRFTISRDNATNTVYLQMNSMKPEDTSVYYCNAGYTYRGYWSYGYWGQGTQVTVSS
polyreactivity (PSR sort gate): high polyreactivity

QVQLVESGGGLVQAGGSLRLSCAASGRILRHNAKGWYRQAPGKERELVAAITNGGSTYYADSVKGRFTISRDNAKNTVYLQMNCLKPEDTAVYYCAARTRLAQYSRGRYRYDYWGQGTQVTLSS
polyreactivity (PSR sort gate): high polyreactivity

QVQLVESGGGLVQAGGSLRLSCAASGSTFGGNAMGWYRQAPGKERELVAAITIGGRTNYADSVKGRFTISRDYAKNTVYLQMNSLKPEDTAVYYCAKDRDQWQDYWGQGTQVTVSS
polyreactivity (PSR sort gate): low polyreactivity

QVQLVESGGGLVQAGGSLRLSCAASGSILYNNAMGWYRQAPGKERELVAAIDLSTGSTYYADSVKGRFTISRDNAKNTVYLQMNSLKPEDSSVYYCAAGKPLGSSTKYRPYDYWGQGTQVTVSS
polyreactivity (PSR sort gate): low polyreactivity

QVQLVESGGGLVQAGGSLRLSCDASGFILSSNAMGWYRQAPGKERELVAAISSSGRTYYTDSVKGRFTISRDNAKNTVYLQMNSLKPEDTAVYYCAAGGYYYAIGYWGQGTQVTLSS
polyreactivity (PSR sort gate): high polyreactivity

QVQLVESGGGLVQAGGSLRLSCAASGFIFYRNTMGWYRQAPGKEREFVAAIRWRGGSTYYADPVKGRFTISRDNAKNTVYLQMNSLKPEDTAVYYCAADTRPGYSGFEYWGQGTQVTVSS
polyreactivity (PSR sort gate): high polyreactivity

QVQLVESGGGLVQAGGSLRLSCAASGFIFDDYAMGWYRQAPGKERELVAAISVSSTNYADSVKGRFTISRDNAKNTVYLQMNSLKPEDTAVYYCAADTYTYFLASYLYGQYDYWGQGTQVTVSS
polyreactivity (PSR sort gate): low polyreactivity

QVQLVESGGGLVQAGGSLRLSCAASGFIFRRYARGWYRQAPGKERELVASISWRGGSTYYADSVKGRFTISRDNAKNTVYLQMNSLKPEDTAVYYCAARIGATYWVDWTHRAYDYWGQGTQVTVSS
polyreactivity (PSR sort gate): high polyreactivity

QVQLVESGGGLVQAGGSLRLSCAASGFTFHNYAMGWYRQAPGKEREFVAAITRNTASTYYADSVKGRFTISRDNAKNTVYLQMNSLKPEDTAVYYCAATDKKHRTAYDSWGQGTQVTVSS
polyreactivity (PSR sort gate): low polyreactivity

QVQLVESGGGLVQAGGSLRLSCAASGSTFYHNVMGWYRQAPGKERELVASIDTGDSTNYADSVKGRFTISRDNAKKTVYLQMNSLKPEDTAVYYCNAVWNTFISGRSYDYWGQGTQVTVSS
polyreactivity (PSR sort gate): low polyreactivity

QVQLVESGGGLVQAGGSLRLSCAPSGSTLFYNAMGCYRQSPGKETELVATISGGGVSTYYADSVNGRFRISRDNAKNSVYLQMYSLKPEDTAVYYCAAAGWSEGGYDYWGQGTQVTVSS
polyreactivity (PSR sort gate): low polyreactivity
